The target of this test is biotinylated full-length human IGF-I receptor (human) (UniProt P08069). As to the kind of experiment: ELISA titration, similar to that of the whole antibody.

Fab fragment of EM164 antibody, sequence (VH): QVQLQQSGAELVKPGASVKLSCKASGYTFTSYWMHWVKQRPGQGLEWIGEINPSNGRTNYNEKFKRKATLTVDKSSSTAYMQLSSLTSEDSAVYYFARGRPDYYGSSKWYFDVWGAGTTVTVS
Fab fragment of EM164 antibody, sequence (VL): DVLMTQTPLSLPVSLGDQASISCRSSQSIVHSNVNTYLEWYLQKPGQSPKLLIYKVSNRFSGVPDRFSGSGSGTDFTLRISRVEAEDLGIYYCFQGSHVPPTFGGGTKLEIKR

With Fab fragment of EM164 antibody, the Kd (commonly the equilibrium constant for the complex coming apart) was 0.3 nM.
